Numbering of substitutions follows the chain as printed. Names may count otherwise.

In the assay the target is fibrinogen (UniProt P02671). As to the kind of experiment: SPR. (SPR reads the build-up and loss of mass on a sensor chip optically.)
UniProt P02671, sequence (P02671 36-866, chain 1 of 3): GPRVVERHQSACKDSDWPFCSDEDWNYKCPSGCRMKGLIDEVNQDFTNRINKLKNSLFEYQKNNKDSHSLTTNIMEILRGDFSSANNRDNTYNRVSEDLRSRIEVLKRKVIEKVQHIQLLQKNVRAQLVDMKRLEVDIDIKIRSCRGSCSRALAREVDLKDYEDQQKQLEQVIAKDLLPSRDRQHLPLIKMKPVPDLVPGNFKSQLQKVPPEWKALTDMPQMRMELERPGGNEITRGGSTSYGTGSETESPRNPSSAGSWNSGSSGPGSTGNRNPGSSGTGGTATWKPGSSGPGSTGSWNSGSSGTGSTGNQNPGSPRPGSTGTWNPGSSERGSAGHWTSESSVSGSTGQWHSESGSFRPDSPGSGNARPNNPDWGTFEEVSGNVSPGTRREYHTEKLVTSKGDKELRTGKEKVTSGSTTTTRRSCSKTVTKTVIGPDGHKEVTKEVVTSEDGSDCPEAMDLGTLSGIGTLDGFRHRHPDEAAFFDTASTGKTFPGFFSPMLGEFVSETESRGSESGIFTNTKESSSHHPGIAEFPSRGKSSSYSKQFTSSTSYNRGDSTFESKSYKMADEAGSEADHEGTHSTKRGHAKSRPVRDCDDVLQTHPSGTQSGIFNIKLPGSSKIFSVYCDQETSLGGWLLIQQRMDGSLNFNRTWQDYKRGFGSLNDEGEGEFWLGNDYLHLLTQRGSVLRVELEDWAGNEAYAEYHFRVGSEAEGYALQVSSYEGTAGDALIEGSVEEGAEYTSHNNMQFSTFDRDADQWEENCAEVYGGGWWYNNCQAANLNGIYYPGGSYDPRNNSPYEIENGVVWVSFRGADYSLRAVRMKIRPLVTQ
UniProt P02671, sequence (P02675 45-491, chain 2 of 3, further chain): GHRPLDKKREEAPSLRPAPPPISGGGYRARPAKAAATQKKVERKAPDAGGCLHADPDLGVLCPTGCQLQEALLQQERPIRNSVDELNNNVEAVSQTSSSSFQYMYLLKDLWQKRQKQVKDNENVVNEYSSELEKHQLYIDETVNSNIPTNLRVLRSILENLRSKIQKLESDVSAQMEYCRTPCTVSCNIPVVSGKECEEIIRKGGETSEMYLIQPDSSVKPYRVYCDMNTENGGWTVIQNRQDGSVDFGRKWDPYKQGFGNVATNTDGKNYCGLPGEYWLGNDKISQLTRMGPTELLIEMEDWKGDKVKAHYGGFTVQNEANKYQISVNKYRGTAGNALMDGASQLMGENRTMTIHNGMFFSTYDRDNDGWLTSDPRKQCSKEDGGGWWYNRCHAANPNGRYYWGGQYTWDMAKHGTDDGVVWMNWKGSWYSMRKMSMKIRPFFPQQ
UniProt P02671, sequence (P02679 27-453, chain 3 of 3, further chain): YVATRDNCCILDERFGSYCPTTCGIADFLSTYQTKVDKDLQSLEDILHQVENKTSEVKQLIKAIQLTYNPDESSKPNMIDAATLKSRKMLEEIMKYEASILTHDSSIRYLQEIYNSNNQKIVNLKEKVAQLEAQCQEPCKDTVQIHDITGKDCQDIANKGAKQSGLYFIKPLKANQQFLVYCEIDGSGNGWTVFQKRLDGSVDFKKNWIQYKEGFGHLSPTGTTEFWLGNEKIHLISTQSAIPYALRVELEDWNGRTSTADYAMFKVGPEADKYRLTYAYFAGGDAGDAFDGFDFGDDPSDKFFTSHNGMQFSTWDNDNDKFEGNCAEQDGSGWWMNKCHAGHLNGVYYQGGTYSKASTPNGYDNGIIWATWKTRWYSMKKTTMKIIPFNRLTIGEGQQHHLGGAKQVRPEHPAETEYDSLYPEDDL

B1: human αX I-domain (residues Q129 to G319), wild type (domain or fragment)
chain: QEQDIVFLIDGSGSISSRNFATMMNFVRAVISQFQRPSTQFSLMQFSNKFQTHFTFEEFRRSSNPLSLLASVHQLQGFTYTATAIQNVVHRLFHASYGARRDAAKILIVITDGKKEGDSLDYKDVIPMADAAGIIRYAIGVGLAFQNRNSWKELNDIASKPSQEHIFKVEDFDALKDIQNQLKEKIFAIEG
The term Kd denotes the concentration at which binding is half-saturated. Low readings indicate tighter binding, high ones weaker binding. B1 displayed a Kd of 20 µM.

B2: human αX I-domain I314G construct (domain or fragment)
chain: B1 chain with I186G
With B2, the Kd is 100 µM.

The values are drawn from PMC9440770.
